Paper doi:10.1101/2022.07.20.500776v2

Substrate: O=[N+]([O-])c1ccc(OP(=O)(O)O)cc1
Test: purified protein
Details: pH 8.0, 100 mM Tris-HCl, 1 mM MgCl2, 10 °C, no added NaCl

B1: Vibrio alkaline phosphatase (VAP) (Vibrio sp. G15-21) (protein)
chain: AEIKNVILMIGDGMGPQQVGLLETYANQAPNSIYKGNKTAIYQLAQEGVIGSSLTHPEDAIVVDSACSATMLATGIYSSSEVIGIDSQGNHVETVLEKAKKAGKATGLVSDTRLTHATPASFAAHQPHRSLENQIASDMLATGADVMLSGGLRHWIPKSTNDKGETYKQLEKLTQGDVYLKSKRKDDRNLLTEAEKDGYQLAFNRNMLDDAKGDKLLGLFAYSGMDDGIAYSNKKKSGERTQPSLKEMTQKALNILSKDEDGFFLMVEGGQIDWAGHSNDAGTMLHELLKFDEAIQTVYEWAKDREDTIVIVTADHETGSFGFSYSSNDLPKPQKRSGEAFADRDYAPNFNFGAFDILDGLYNQKQSYYGMISEFQKLDKSLQTPEKLAEIVNKNSEFPITAEQAKNVLASKPNPYRLAQHKYLSAEEVPAINDFDAFFPYNDRGNLLAREQATGQNIVWGTGTHTHTPVNVFAWGPAEKILPVSKIMHHSELGEYIKQQVN
Q: For B1, which Km is on record?
A: 7.6 ± 1.8 µM

Q: What about the kcat of the same protein?
A: 231 ± 15 s⁻¹
